From patent US20250101126A1

Experiments:
[1] = target: Tn-glycosylated MUC4 on cells (MUC4-Tn; COSMC-KO cells, cancer tissue) (UniProt Q99102); experiment: flow cytometry on T3M4 COSMC-KO (T3M4-M) cells
[2] = target: MUC4-Tn glycopeptide … (SEQ ID NO:154) with O-linked GalNAc on the serine and threonine at positions 12 and 13; experiment: BLI (Octet), MUC4 glycopeptide on biosensor
Chain of MUC4-Tn glycopeptide … (SEQ ID NO:154) with O-linked GalNAc on the serine and threonine at positions 12 and 13 (peptide, as listed by the source): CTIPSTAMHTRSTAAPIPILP

| EC50 [1] [µg/mL] | Kd [2] [nM] | Binder |
| --- | --- | --- |
| 0.0194 | 5.3 | 2D5-HV1-69-C/KV2B (antibody, V domains shown) VH: QVQLVQSGAEVKKPGSSVKVSCKASGYTFSDHAIHWVRQAPGQGLEWLGYISPGNADINYAQKFQGRVTITADKSTSTAYMELSSLRSEDTAVYYCKRSMANSFDYWGQGTLVTVSS VL: DIVMTQTPLSLPVTPGEPASISCRSSQSVLYSSDEKTYLAWYLQKPGQSPQLLIYWASTRESGVPDRFSGSGSGTDFTLKISRVEAEDVGVYYCHQYLSSYTFGQGTKLEIK |
| 0.0179 | 4.1 | 2D5-HV1-69-A/KV2A (antibody, V domains shown) VH: QVQLVQSGAEVKKPGSSVKVSCKASGYTFTDHAIHWVRQAPGQGLEWLGYISPGNDDIQYNAKFKGRATLTADKSTSTAYMELSSLRSEDTAVYFCKRSMANSFDYWGQGTLVTVSS VL: DIVLTQTPLSLPVTPGEPASISCKSSQSVLYSSDQKNYLAWYLQKPGQSPQLLIYWASTRESGVPDRFSGSGSGTDFTLKISRVEAEDVGVYYCHQYLSSYTFGQGTKLEIK |
| 0.0163 | 7.7 | 2D5-HV1-3B/KV2B (antibody, V domains shown) VH: QVQLVQSGAEVKKPGASVKVSCKASGYTFTDHAIHWVRQAPGQRLEWLGYISPGNDDIQYSQKFKGRVTITADKSASTAYMELSSLRSEDTAVYYCKRSMANSFDYWGQGTLVTVSS VL: DIVMTQTPLSLPVTPGEPASISCRSSQSVLYSSDEKTYLAWYLQKPGQSPQLLIYWASTRESGVPDRFSGSGSGTDFTLKISRVEAEDVGVYYCHQYLSSYTFGQGTKLEIK |
| 0.0248 | 3.3 | 2D5-HV1-69-B/KV2B (antibody, V domains shown) VH: QVQLVQSGAEVKKPGSSVKVSCKASGYTFTDHAIHWVRQAPGQGLEWLGYISPGNDDIQYNQKFKGRVTITADKSTSTAYMELSSLRSEDTAVYYCKRSMANSFDYWGQGTLVTVSS VL: DIVMTQTPLSLPVTPGEPASISCRSSQSVLYSSDEKTYLAWYLQKPGQSPQLLIYWASTRESGVPDRFSGSGSGTDFTLKISRVEAEDVGVYYCHQYLSSYTFGQGTKLEIK |
